The test system of data set [1] is chymotrypsin. Briefly: In vitro enzyme (chymotrypsin) resistance, HIM2 and Zn HIM2 complexes. It counts as in vitro ADME. The settings on record: 37° C., 0.3 mg/mL protein. The method, then: (§1) This sample serves as T=0. […] The half life was calculated using the equation: t1/2:=−0.693/slope.
The subject of data set [2] is chymotrypsin. As to the kind of experiment: In vitro enzyme (chymotrypsin) resistance, IN105 and Zn IN105 complexes. The settings on record: 37° C., 0.6 mg/ml protein. The format is in vitro ADME. The method, then:
as §1

Data on 2 substances can be found in US8563685B2, “Fatty acid formulations and oral delivery of proteins and peptides, and uses thereof” (priority 2004, dated 2013).

For “HIM2 (R-type zinc complex): R-type Zn complex of HIM2, 1.1% w/w zinc, 0.1 to 0.25% w/w phenol”, the T half with chymotrypsin [1] was 19 to 21 min.
On to “IN105 (R-type zinc complex): R-type Zn complex of IN105, 1.85% w/w zinc, 2.37% w/w phenol (as reaction 9.6.1)”, for which the T half with chymotrypsin [2] stood at 55.3 min.
